{
  "source": "patent US20240150489A1",
  "key": {"[1]": {"biological_target": "CD38 on Raji-CD47KO cells (human) (UniProt P28907)", "assay": "flow cytometry dot plot, Raji-CD47KO cells, saturating Darzalex-AF647 alone; other quadrants printed Q1 0, Q2 0, Q4 0.23"}, "[2]": {"biological_target": "CD38 on Raji-CD47KO cells (human) (UniProt P28907)", "assay": "flow cytometry dot plot, Raji-CD47KO cells, mix of saturating Darzalex-AF647 and BEAT 38/47-60-AF488; other quadrants printed Q1 0.070, Q3 0.21, Q4 0.035"}},
  "data": [
    {"substance": "Darzalex (antibody)", "values": [
      {"measurement": "percent of cells in quadrant Q3 (AF647 positive, AF488 negative)", "setting": "[1]", "result": 99.8, "unit": "%"},
      {"measurement": "percent of cells in quadrant Q2 (AF488 and AF647 double positive)", "setting": "[2]", "result": 99.7, "unit": "%"}
    ]}
  ]
}
